In the supplement of paper PMC9170038:

Each sequence was assayed on K4 kissing-loop RNA reporter (assay: apparent KD of K4 kissing-loop reporter; higher = weaker reporter binding). Conditions: Eterna round: R107; input ligand: theophylline 20 uM.
Protocol: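 RNA-MaP round R107: designed RNA switches with theophylline, tryptophan, arginine or FMN aptamers are transcribed on-chip within common flanks. They are titrated with a labelled K4 kissing-loop RNA reporter in RNA-MaP buffer (100 mM Tris pH 7.5, 80 mM KCl, 4 mM MgCl2), without ligand or with the indicated ligand. Median apparent KD per design.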
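Note: bound reporter read as fluorescence of individual clusters on recovered sequencing chips by microscopy, with normalized cluster intensities fitted with a binding model.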

First: AAAGUUGAAAGUGAUACCAGACGAGUGAAGGGAAGUAAUUAAUUUGGAGUGAUGUUCCGCGUCCCUUGGCAGCAUUUUGUAAUUU [Exclusion Theophylline B GF 24]
Second: GUUACGCAUGGAAGGAGCGCGAAUUUAAUUAGUGAGUGAUGUUCACAUAAAAUAUAUAAUACGCAGGUAGGUCGCCAUGUGUAAC [Ex Arginine B K4 1]
The “apparent KD of K4 kissing-loop reporter” value of the first is 2.2-fold higher: 186 nM for the first, 82.8 nM for the second.

“GACAACAGGGUGAGACUCACGGCGCCAGAAGGAGCGGUGAUUCCACCAGGUAGGUCGCUGGCCCAGUGAUGUUGGGCUUUGUGUC [Onoran]” and “CACCAUGAAUUCUCUAGGAGUGAUGUUUUUCGAGGACCGGUACGGCCGCCACUCGGACGAGGACCGUGGGAGCGGCGAAAAGACU [ghgmullin]” are within 1.5-fold of each other in “apparent KD of K4 kissing-loop reporter” value: 133 nM for the first, 152 nM for the second.

Going from “UUUAACGAGUGAUGUUCGUAAAGUAAUAGUUAGGAUAUCGUUUUUUCGAGAAGGAACUUCGAAGUGAUACGAAAGUAUCGCUUCG [FMN A 8]” to “UGACUGGACUGAAGGAGCGGGCGAGACAAAGUCUCGAACUCGUAGUGAUGUUAUGAAAUAACCCAGGUAGGUCGCAGUCUAGUCU”, the “apparent KD of K4 kissing-loop reporter” value rises from 205 nM to 868 nM (4.2-fold).

“AAAAUAAACCAGUGAUGUUGGUAUCCAGAUACCAGCGACGAAAGUCGCCCUUGGCAGCUGUGGACGUACAAAAUAAGUACGUCCU” and “UAACGCUGACAGCAACAAUUCGGGCCUGAUACCAGCAAUUUUUCAUGCCCUUGGCAGCAGAGUGAUGUUUUCUGUCUAUUUAGUC [theeternabot_exclusion_KL_Theo_A_23]” are within 1.5-fold of each other in “apparent KD of K4 kissing-loop reporter” value: 746 nM for the first, 700 nM for the second.

“CGCCGCAAGGCGGGCCGGCCCACUCCGGAAGGAGCGCCCGCAAGGGCAGGUAGGUCGCCGGAGUGAUGUUCCGGUGGCCGGCCCG [#2 Exclusion - Arginine A Attempt #3 (Inspired by Omei)]” and “AGCAGUGAUGUUGCAUUUAAAAUGACCGAUACCAGUAUCGAUAGAUACCCUUGGCAGCGGAUUUCCGCAACGACUAGGAAACUAG [Ex Theophylline A K4 15]” are within 1.5-fold of each other in “apparent KD of K4 kissing-loop reporter” value: 592 nM for the first, 504 nM for the second.

In the case of “CACGUUUACCAAGGAUAUGGUCUGCCGCGGAACCGUUCAAGUGAUGUUUGAUUCGAGUAUUAAUCUCCAGAAGGUGGUAGUACAG [theeternabot_exclusion_KL_FMN_B_6]”, the “apparent KD of K4 kissing-loop reporter” value is reported as 476 nM.

Same assay, conditions: Eterna round: R107; input ligand: tryptophan 2.4 mM

“AAGUUAUGAUCUGAUACCAGACUUUAUCUUGUUUAUAAGUCAAGUGAUGUUUGACUAUUAGUCCCUUGGCAGCAGUAUUGUUUAA [#18 K4 Theophylline B Same State]” and “AAGAAGAAUGGAAGGAGCGAGCAGAAAUAACCAGUGAUGUUGGAAAGCCUUAUUGCUUAAGCUCAGGUAGGUCGCCAAGAAAAGA [Mostly trial and error]” are within 1.5-fold of each other in “apparent KD of K4 kissing-loop reporter” value: 255 nM for the first, 171 nM for the second.

First: GGAUAGGACAGAGGAUAUGGAGAGUCUACAAAGUAGGCUCAUAAUCCUUGAAUGGAAGUGAUGUUUCCAGAAGGCUGUCCUAUCG [FmnBX 17 - #SwitchBubble #StaticStem #Palindromic]
Second: UGCGCUAUGUCCUAAAACGUCCUCCGGGAUACCAGAGUCUUUUUAUUCCCUUGGCAGCUUGAGUGAUGUUUGAUGCCGUUCUUGU [srrevmullin]
The “apparent KD of K4 kissing-loop reporter” value of the first is 2.6-fold lower: 119 nM for the first, 315 nM for the second.

Compared with “CGAGUCCUGAGGAGUGAUGUUCCUCGGCCACGAGGACCGGUACGGCCGCCACUCGUUACUCGGGCUUAGUGGCUAGCACUAAGCU [Tirete]”, “GCUCAGGAGUGAUGUUCCAAGUGGUGUUAACGAGGACCGGUACGGCCGCCACUCGAUACGGCCGGACCGUAGGAUAAACUAGAGC [Same State - Tryptophan A (Freestyle 11)]” is 1.7-fold higher in “apparent KD of K4 kissing-loop reporter” value: 118 nM for the first, 206 nM for the second.

Going from “CAGAACUUGUAUAUAGGGUAUAUAAGAGAUACCAGUCAAAUUAAAGACCCUUGGCAGCUCAGGCGAGUGAUGUUCGCAGGCUAAC [Exclusion Theophylline A GF 17]” to “ACGACGCAUAGUGAUACCAGCAUUAUAUGAGUGAUGUUCUACCUAAAAUGGUAAUAAUUAUGCCCUUGGCAGCACUAUGCGUCAG [KL-SSTheoB3]”, the “apparent KD of K4 kissing-loop reporter” value rises from 91.1 nM to 247 nM (2.7-fold).

Compared with “AGUGCACUGUCAGGAUAUAUACAGUGAUGUUGUGUAUGUCGGCAAGUCAAAGACUUGCCAUUCUGUGUAGAAGGGACUGUGUACA [#04 K4 FMN B Exclusion]”, “UGUCAUUGGUCGGAUACCAGUUGAUGACGAAUACGUCAACUGGAGUGAUGUUCCUAAAACAACCCUUGGCAGCCGACCGAUGACU [MAT - Same State Theophlline B - Mod of Eli - D1]” is 3.4-fold higher in “apparent KD of K4 kissing-loop reporter” value: 223 nM for the first, 761 nM for the second.

“AAGGUUUAGCACGAUACCAGCCUGGAGGCCAGUGAUGUUGGCCGAUUUGAACAGAAUUAAGGCCCUUGGCAGCGUCUCUAAAACC [Dierra]” and “GGGUCUGUCGGAAGGAGCGCGCUAUGGAGUGAUGUUCCAUGACCGUACAGCUUACGGUCAGCGCAGGUAGGUCGCCGAUAGCGUU [Geordiar]” are within 1.5-fold of each other in “apparent KD of K4 kissing-loop reporter” value: 176 nM for the first, 120 nM for the second.

“GGUGCUGUCUGUGCCGCCCUCCUCGUCCCUCGAGGACCGGUACGGCCGCCACUCGAGUGAUGUUCGGGUAGCCAUCCCUGCUAGC [Bdazzled - #19 Exc. Tryptophan A]” and “AAAAUAACCCAGUGAUGUUGGUAUACAGAUACCAGCGACGAAAGUCGCCCUUGGCAGCUGUGGACGUACAAAAUAAGUACGUCCU” are within 1.5-fold of each other in “apparent KD of K4 kissing-loop reporter” value: 937 nM for the first, 1010 nM for the second.

First: CUUAAGAUAUGAGUGAUGUUCAUGUCCGAAGGAGCGUGCGAAAGCACAGGUAGGUCGCGGAUGUGAGUGAUGUUCAUGUAAGCGA [KL-XArg-A12 #analogue]
Second: UUUAACGAGUGAUGUUCGAAAAGUAAUGGUGAGGAUAUCGUUUUUUCGAGAAGGCACCUCGAAGUGAUACGAAAGUAUCGCUUCG [FMN A 3]
The “apparent KD of K4 kissing-loop reporter” value of the first is 1.7-fold lower: 153 nM for the first, 266 nM for the second.
